Measured values: patent US20200399314A1 (MEDIKINE, published 2020)
Bridge positions count the residues as written; N and C are the ends. Ends that are not written are not given here.

T1: human IL-2Rα subunit (human, UniProt P01589 22-213, limits assumed)
T1 construct: also called CD25
T1 sequence (looked up): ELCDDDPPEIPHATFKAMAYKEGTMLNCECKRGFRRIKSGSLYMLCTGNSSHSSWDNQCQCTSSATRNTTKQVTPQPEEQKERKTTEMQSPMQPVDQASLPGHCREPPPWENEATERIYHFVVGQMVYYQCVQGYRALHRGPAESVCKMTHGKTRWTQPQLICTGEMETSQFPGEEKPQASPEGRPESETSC


Molecular target: T1, human IL-2Rα subunit

IC50, < 100 µM:
GSRCYWDPGREVCIFK [SEQ ID NO 91]
EWECRFLPGRRGCSLF [SEQ ID NO 92]
FWECVYSPGSRGCRMV (disulfide 4-13 (inferred)) [SEQ ID NO 93]
GFRCTYDPGTHSCWSI [SEQ ID NO 94]
KWICRLVPGNGACHSF [SEQ ID NO 95]
PWVCEHYPGRRGCVLM (disulfide 4-13 (inferred)) [SEQ ID NO 96]
FIPWDEYFAQLL [SEQ ID NO 8]
QWSCVFSPGVRGCKLV (disulfide 4-13 (inferred)) [SEQ ID NO 97]
RFICRIQPGREGCWSL [SEQ ID NO 98]
RWECIYIPGRKGCTLQ [SEQ ID NO 99]
SLNCKTRPGLRWCTWT [SEQ ID NO 100]
SWECVYMPGHQGCRLF [SEQ ID NO 101]
VRFCRSGPGWVSCGTQ [SEQ ID NO 102]
VRLCRVGPGYESCPAN [SEQ ID NO 103]
VRMCYVAPGYVSCPRM [SEQ ID NO 104]
NWECIFSPGRRGCSLT [SEQ ID NO 109]
DWECLFLPGRRGCTLF (disulfide 4-13 (inferred)) [SEQ ID NO 118]
DWECLFLPGRRGCLLF [SEQ ID NO 110]
DWECIFLPGRRGCTLF (disulfide 4-13 (inferred)) [SEQ ID NO 114]
FIPWDEYFKQVL [SEQ ID NO 9]
EWECLFMPGRRGCLLM (disulfide 4-13 (inferred)) [SEQ ID NO 111]
AWECLFLPGHRGCSLF [SEQ ID NO 112]
EWECLFLPGRKGCTLF [SEQ ID NO 113]
VYECLFMPGRKGCFGM [SEQ ID NO 115]
EWECWFLPGRRGCTLI [SEQ ID NO 116]
DWHCLFLPGHRGCTLF (disulfide 4-13 (inferred)) [SEQ ID NO 117]
YWECVFMPGHRGCSLI [SEQ ID NO 119]
TWDCLFLPGRRGCTLM [SEQ ID NO 120]
FVPWDVYFSQIL [SEQ ID NO 10]
NWECIFSPGRRGCSLT [SEQ ID NO 121]
AGWCKLNPGTQVCSFY (disulfide 4-13 (inferred)) [SEQ ID NO 126]
ETPCDLHPGHWSCSMV [SEQ ID NO 127]
FFLCDDFPGLPRCEWI [SEQ ID NO 128]
GLRCYFDPGSQICTFL [SEQ ID NO 129]
GQRCTYDPGQDACVFS [SEQ ID NO 130]
GSRCYWDPGREVCIFK [SEQ ID NO 131]
KLWCQNNPGNSICDMY [SEQ ID NO 132]
KSWCFDHPGYPICQFY [SEQ ID NO 133]
RLFCLMNPGPPDCWIY [SEQ ID NO 134]
